This data set deals with the molecule itself. As to the kind of experiment: SEC + other: SDS-PAGE.

B1: YidH (natural protein, E. coli, UniProt P0ADM0 1-115, looked up)
chain: MKISRLGEAPDYRFSLANERTFLAWIRTALGFLAAGVGLDQLAPDFATPVIRELLALLLCLFSGGLAMYGYLRWLRNEKAMRLKEDLPYTNSLLIISLILMVVAVIVMGLVLYAG
In the case of B1, the “stoichiometry N” value was found to be 2.

B2: YgaP (natural protein, E. coli, UniProt P55734 1-174, looked up)
chain: MALTTISPHDAQELIARGAKLIDIRDADEYLREHIPEADLAPLSVLEQSGLPAKLRHEQIIFHCQAGKRTSNNADKLAAIAAPAEIFLLEDGIDGWKKAGLPVAVNKSQPLPLMRQVQIAAGGLILIGVVLGYTVNSGFFLLSGFVGAGLLFAGISGFCGMARLLDKMPWNQRA
For B2, the “stoichiometry N” value turned out to be 2.

(Values after publication PMC2705707 (Journal of Structural and Functional Genomics, 2009).)
